From article PMC10182306

Molecular target: human platelet actin (human) (UniProt P60709)
Test: co-sedimentation

percent of input pelleted with F-actin: 77%
Substance: α-actinin (from UniProt P12814 1-892) (natural protein)
